For assay [1], the target named is T1, native c-Met on live SNU-5 cells (Homo sapiens, UniProt P08581).
T1 construct: native c-Met expressed on the cell surface of SNU-5 cells; host or cells: SNU-5
Put plainly: Flow cytometry of antibody binding to live SNU-5 cells. The settings on record: 1 μg/mL mAb, FITC secondary antibody. As for the experimental part:
Flow cytometry was used to determine if our monoclonal antibodies could bind to native c-Met on live cells. SNU-5 cells were incubated with 1 μg/mL of monoclonal antibody. Binding of anti-α-chain c-Met monoclonal antibodies to native c-Met expressed on the cell surface of SNU-5 cells was detected using anti-mouse secondary antibody conjugated with FITC dye. T47D, a human breast cancer cell line expressing low levels of c-Met, was used in this assay to determine if the antibodies bind non-specifically to the cell surface.
SNU-5 cells (1×10^6 cells) were washed once in cold PBS before blocking in 1% BSA/PBS. Cells were washed twice before incubating with anti-α-chain c-Met monoclonal antibodies. 1 μg/mL anti-α-chain monoclonal antibodies were used. Cells were incubated with goat anti-mouse IgG FITC-conjugated secondary antibodies (Invitrogen) and finally resuspended in 1% BSA/PBS. Flow cytometry was performed using Becton Dickinson (U.S.A.) FACScan. Cell Quest (Becton Dickinson) and FlowJo (Tree Star Inc., U.S.A.) software was used for data analysis.
A general note: In flow cytometry, cells or beads pass a laser one at a time.

Assay [2] concerns SNU-5 cells. Nature of the assay: Annexin V staining (cell death). It is filed as cell-based, human.
The subject of assay [3] is SNU-5 cells. Nature of the assay: Cell proliferation by CellTracker Green BODIPY dye retention. Type of assay: cell-based, human. The settings on record: SNU-5, 10 μg/mL mAb, 6 days. As for the experimental part: CellTracker BODIPY dye is a membrane permeable dye that enters cells freely. Once in the cell, the dye is converted to a membrane impermeable product which labels the cell green. The dye is passed on to dividing daughter cells but is not transferable to neighbouring cells. Dividing cells would fail to retain the green dye as it is being diluted to progeny cells. Cells were treated with 10 μg/mL of monoclonal antibodies for 6 days and dye retention in cells was analysed by flow cytometry.
SNU-5 cells were stained with 5 μM of CellTracker BODIPY dye for 30 mins. Stained cells were seeded and treated with anti-α-chain c-Met monoclonal antibodies for 6 days. Cells were harvested and dye retention in live cells were analysed by flow cytometry.

The test system of assay [4] is SNU-5 cells. Put plainly: Immunofluorescence of antibody internalisation. Type of assay: cell-based, human. The settings on record: SNU-5, 10 μg/mL mAb. As for the experimental part:
In order to determine if mAb 2 and 13 were internalised into the cell upon antibody binding, SNU-5 cells were incubated with 10 μg/mL of anti-α-chain monoclonal antibody. Monoclonal antibody treated cells were fixed and permeablised. Bound and internalised antibody was detected by anti-mouse Alexa Fluor®488-conjugated secondary antibody. Antibody localisation was observed by confocal microscopy.
10 μg/mL of anti-α-chain monoclonal antibody were incubated with live SNU-5 cells for 1 hr at 4° C. or 37° C. Antibody-treated cells were washed once with PBS and deposited onto polylysine-coated slides (Thermo Scientific, #5991056) using the Thermo Shandon Cytospin 3 Cytofuge (Thermo Scientific) at 800 rpm for 5 mins and fixed immediately in 4% paraformaldehyde. Cells were then blocked and permeablised in PBS containing 0.4% Triton X-100 and 5% BSA. Bound anti-α-chain c-Met antibodies were detected using anti-mouse Alexa Fluor®488-conjugated secondary antibody. Phallodin was added together with the secondary antibodies. Cells were washed before staining with 4′,6′-diamidino-2-phenylindole (DAPI) and mounted with Hydromount (National Diagnostics, U.S.A.) containing 2.5% DABCO (1,4-Diazabicyclo-[2.2.2]octane) (Sigma-Aldrich) as an anti-bleaching agent Immunofluorescence was observed using Nikon Eclipse E600 microscope.

Assay [5] has as its target T1, native c-Met on live SNU-5 cells. Put plainly: Temperature sensitivity of antibody binding by flow cytometry. The settings on record: live SNU-5, 10 μg/mL mAb, 1 hr. As for the experimental part:
To determine if temperature affects the binding affinity of anti-α-chain monoclonal antibody to native c-Met, mAb 2, 13, 11 and 18 were incubated with live SNU-5 cells at 4° C. or 37° C. Binding of monoclonal antibody to native c-Met expressed on the cell surface of live SNU-5 cells was detected using anti-mouse secondary antibody conjugated with Alexa Fluor®488 dye and analysed by flow cytometry. Antibody binding, which correlates with fluorescence intensity, was compared at the different temperatures. […] It is plausible that the reduction of antibody binding is due to the unavailability of antibody's epitope on native c-Met expressed on live SNU-5 cells. c-Met is a dynamic protein at normal physiological temperature and becomes rigid at low temperature, causing certain epitopes to be obscured.
10 μg/mL of anti-α-chain monoclonal antibody were incubated with live SNU-5 cells for 1 hr at 4° C. or 37° C. Cells were harvested and washed once in cold PBS. Antibody binding to live cells was determined by Alexa Fluor®488-conjugated anti-mouse secondary antibodies (Invitrogen #A11029). Cells were resuspended in 1% BSA/PBS and analysed by flow cytometry.

“Also recorded” adds a separate entry of the source.

T1 sequence (P08581 25-1390): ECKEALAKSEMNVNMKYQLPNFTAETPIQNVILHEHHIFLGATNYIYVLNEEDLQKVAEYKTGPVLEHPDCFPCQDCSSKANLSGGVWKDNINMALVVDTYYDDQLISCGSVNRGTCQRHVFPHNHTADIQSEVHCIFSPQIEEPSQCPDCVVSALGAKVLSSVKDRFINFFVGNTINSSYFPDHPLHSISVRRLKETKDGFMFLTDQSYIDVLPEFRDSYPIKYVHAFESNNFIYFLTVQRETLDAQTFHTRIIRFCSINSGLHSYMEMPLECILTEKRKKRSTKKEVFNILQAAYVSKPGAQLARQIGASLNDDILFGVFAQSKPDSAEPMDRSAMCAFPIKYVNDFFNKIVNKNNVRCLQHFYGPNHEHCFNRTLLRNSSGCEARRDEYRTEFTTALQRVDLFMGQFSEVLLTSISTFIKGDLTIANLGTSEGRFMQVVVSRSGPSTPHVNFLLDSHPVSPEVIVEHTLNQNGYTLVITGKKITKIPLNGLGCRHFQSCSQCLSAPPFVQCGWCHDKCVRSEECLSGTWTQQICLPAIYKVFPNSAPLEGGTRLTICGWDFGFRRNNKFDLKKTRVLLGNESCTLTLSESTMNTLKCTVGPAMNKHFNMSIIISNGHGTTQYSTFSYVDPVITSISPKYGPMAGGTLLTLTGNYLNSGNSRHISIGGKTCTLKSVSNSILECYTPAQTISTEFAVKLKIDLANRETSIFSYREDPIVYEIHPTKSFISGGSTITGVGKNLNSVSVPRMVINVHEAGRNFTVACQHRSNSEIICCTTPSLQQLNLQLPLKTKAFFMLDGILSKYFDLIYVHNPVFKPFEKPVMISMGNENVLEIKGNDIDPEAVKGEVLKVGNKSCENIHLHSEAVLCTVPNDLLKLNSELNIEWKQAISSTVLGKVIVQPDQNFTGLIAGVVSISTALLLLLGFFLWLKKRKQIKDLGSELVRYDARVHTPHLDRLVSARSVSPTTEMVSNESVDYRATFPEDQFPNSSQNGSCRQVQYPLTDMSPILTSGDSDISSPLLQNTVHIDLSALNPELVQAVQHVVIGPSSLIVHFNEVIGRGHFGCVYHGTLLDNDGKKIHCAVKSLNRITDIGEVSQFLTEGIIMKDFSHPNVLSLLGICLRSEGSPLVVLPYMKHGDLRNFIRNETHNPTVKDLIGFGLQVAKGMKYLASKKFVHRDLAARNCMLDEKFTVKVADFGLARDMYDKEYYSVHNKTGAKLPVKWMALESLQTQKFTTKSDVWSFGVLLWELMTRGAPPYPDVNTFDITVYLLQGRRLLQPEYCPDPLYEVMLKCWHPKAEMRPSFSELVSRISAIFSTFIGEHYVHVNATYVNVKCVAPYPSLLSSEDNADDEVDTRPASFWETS

B1: mAb 2: murine bivalent anti-α-chain c-Met monoclonal antibody, IgG1, kappa; CDRs SEQ ID NO: 2-7; epitope IEE and CPDC (antibody, listed as Homo sapiens)
heavy: QVQLKESGGGLVQPGGSLTLSCATSGFTFTDHYMSWVRQPPGKALEWLAFIRNKAKGYTTEYNASVRGRFTISRDNSQNIVYLQMNTLRTEDSATYYCARDGVGIAYWGQTLVTVSAAKTTPPSVYPLAP
light: SIVMTQSPLSLPVSLGDQASISCRSSQSLENINGNTYKNWYFQKPGQSPQLLIYRVSNRVSGVLDRFSGSGSGTDFTLKITRVEAEDLGVYFCLQVTHVPWTFGGGTKLEIKRADAAPTKSIS
Take B1: the “binding to native c-Met (fluorescence intensity)” value in assay [1] is “strongest fluorescence intensity; also recorded: strongest binding; also recorded: highest fluorescence staining; also recorded: high affinity and specificity; also recorded: strongly”. In addition, the “cell death (annexin V staining)” value with SNU-5 cells [2] was “do not cause cell death”. Further, in the assay on SNU-5 cells [3], the “CellTracker Green BODIPY fluorescence retention” value was “retained significant levels of green fluorescence”. Besides, the “internalisation into the cell” value in the assay with SNU-5 cells [4] is reported as “internalised upon binding to c-Met; also recorded: internalised into the tumour cell”. The “antibody localisation at 4° C.” value with SNU-5 cells [4] (1 hr, 4° C.) was “localised on the cell membrane with diffused cytoplasmic staining”. Further, in the assay on SNU-5 cells [4] (1 hr, 37° C.), the “antibody localisation at 37° C.” value is on record as “increase staining was observed in the cytoplasm”. Also, in assay [5], the “change of antibody binding between 4° C. and 37° C.” value is recorded as “most drastic peak shift; also recorded: temperature sensitive”.

Source of the values: patent US9994644B2, “mAB 2 anti-Met antibody” (Agency for Science, Technology and Research, priority 2013, dated 2018).
